Patent US11306156

Columns and labels:
[1] = biological target: tissue factor (TF) antigen (UniProt P13726); assay: SPR, Fab captured on anti-penta-His surface, TF as analyte, 1:1 fit; against wild-type D3H44 Fab
[2] = biological target: tissue factor (TF) antigen (UniProt P13726); assay: SPR, Fab captured on anti-penta-His surface, TF as analyte, 1:1 fit
[3] = biological target: tissue factor (TF) antigen (UniProt P13726); assay: SPR, ProteOn XPR36; His-tagged Fab captured on anti-penta-His, TF injected; 1:1 fit
[4] = biological target: tissue factor (TF) antigen (UniProt P13726); assay: SPR as for KD; reference: wild-type D3H44 Fab
[5] = biological target: D3H44 light chain Q124R_Q160K_T178R (Kabat) with N-terminal HA or FLAG tag; assay: LCCA, SPR read-out of light-chain tags; light-chain DNA 1:3 normalized to 1:1; competing light chain m17
[6] = biological target: D3H44 light chain T178R (Kabat) with N-terminal HA or FLAG tag; assay: as above
[7] = biological target: D3H44 light chain Q124E_Q160E_T180E (Kabat) with N-terminal HA or FLAG tag; assay: LCCA, SPR read-out of light-chain tags; light-chain DNA 1:3 normalized to 1:1; competing light chain m18
[8] = biological target: D3H44 light chain Q124E_Q160E_T180E (Kabat) with N-terminal HA or FLAG tag; assay: LCCA, SPR read-out of light-chain tags; light-chain DNA 1:3 normalized to 1:1; competing light chain m20
[9] = biological target: tissue factor (TF) antigen (UniProt P13726); assay: SPR (ProteOn XPR36), Fab captured on anti-penta-His surface, TF as analyte, 1:1 fit
[10] = biological target: tissue factor (TF) antigen (UniProt P13726); assay: SPR (ProteOn XPR36), Fab captured on anti-penta-His surface, TF as analyte; reference wild-type D3H44 Fab
[11] = biological target: tissue factor (TF) antigen (UniProt P13726); assay: SPR (ProteOn XPR36): His-tagged Fab captured on anti-penta-His surface, TF as analyte, 1:1 fit; batch C (+)
[12] = biological target: tissue factor (TF) antigen (UniProt P13726); assay: SPR, His-captured Fab, TF as analyte; against wild-type D3H44 Fab
[13] = biological target: tissue factor (TF) antigen (UniProt P13726); assay: SPR, His-captured Fab, TF as analyte, 1:1 fit
[14] = biological target: tissue factor (TF) antigen (UniProt P13726); assay: SPR (ProteOn XPR36), Fab captured on anti-penta-His surface, TF as analyte; reference is the wild-type D3H44 Fab
[15] = biological target: tissue factor (TF) antigen (UniProt P13726); assay: SPR (ProteOn XPR36), His-tagged Fab captured on anti-penta His, TF as analyte; against wild-type D3H44 Fab
[16] = biological target: tissue factor (TF) antigen (UniProt P13726); assay: SPR (ProteOn XPR36), His-tagged Fab captured on anti-penta His, TF as analyte, 1:1 fit

D3H44 H1L1 Fab heterodimer of LCCA Set # 9740 (H1 L143R; L1 Q124E_V133E)
change in median KD compared to wild type, -(log(KD design)-log(KD wt)) [1]: -0.09 | Kd [2]: 0.2 nM

D3H44 Fab heterodimer, H1L1 of LCCA Set # 9568 (H1 L124W_L143F; L1 V133A_S176T_T178L)
Kd [3]: 0.3 nM | change in median KD compared to wild type, -(log(KD design)-log(KD wt)) [4]: -0.28

D3H44 Fab heavy chain Q179K (Kabat) with C-terminal ABD2-His6 tag
H2L2:H2L1 normalized median ratio [5]: 13% | H2L2:H2L1 normalized median ratio [6]: 22% | H2L2:H2L1 normalized median ratio [7]: 78% | H2L2:H2L1 normalized median ratio [8]: 87%

D3H44 Fab heterodimer H1 L45P_L143E_K145T_H172R / L1 P44F_Q124R_Q160K_T178R
Kd [9]: 0.29 nM | Change in median values of KD of h1l1 Fab heterodimer compared to wild type (-(log(KD design)-log(KD wt))) [10]: -0.27

D3H44 Fab heterodimer H1 L124A_S186K / L1 Q124E_V133W_T180E
Kd [9]: 0.15 nM | Change in median values of KD of h1l1 Fab heterodimer compared to wild type (-(log(KD design)-log(KD wt))) [10]: 0.02

D3H44 Fab heavy chain L143D_K145T_Q179E (Kabat) with C-terminal ABD2-His6 tag
H1L1:H1L2 normalized median ratio [6]: 89% | H1L1:H1L2 normalized median scalar value ln(r1/f1) [6]: 2.1 | H1L1:H1L2 normalized median ratio [7]: 11%

D3H44 H1L1 Fab heterodimer of LCCA set 9632 (H1 L143E_K145T_Q179D; L1 Q124R_T178R)
Change in median values of KD of h1|1 Fab heterodimer compared to wild type (-(log(KD design)-log(KD wt))) [11]: 0.04 log units | Kd [11]: 0.14 nM

D3H44 H1L1 Fab heterodimer of LCCA Set # 9098 (H1 L124A_Q179K; L1 Q124E_V133W_S176T_T178E_T180E)
change in median KD compared to wild type, -(log(KD design)-log(KD wt)) [1]: -0.03 | Kd [2]: 0.17 nM

D3H44 Fab heterodimer H1L1 of LCCA Set # 9099 (H1 L124A_Q179K; L1 Q124E_V133W_S176T_T178L_T180E)
Change in median values of KD compared to wild type (-(log(KD design)-log(KD wt))) [12]: -0.09 log | Kd [13]: 0.19 nM

D3H44 Fab heterodimer H1L1 of LCCA set 9181 (H1 L124E_L143D_K145M; L1 Q124K_V133G_S176R_T178K)
Kd [9]: 0.22 nM | Change in median values of KD of h1l1 Fab heterodimer compared to wild type (-(log(KD design)-log(KD wt))) [14]: -0.15

D3H44 Fab heterodimer, H1L1 of LCCA Sets # 9057, 9056 and 9055 (H1 A139G_V190A; L1 L135W_S176L)
Kd [3]: 0.16 nM | change in median KD compared to wild type, -(log(KD design)-log(KD wt)) [4]: -0.02

D3H44 Fab heterodimer, H1L1 of LCCA Sets # 9567 and 9566 (H1 L124W_L143F; L1 V133A)
Kd [3]: 0.25 nM | change in median KD compared to wild type, -(log(KD design)-log(KD wt)) [4]: -0.21

D3H44 Fab heterodimer H1L1 of LCCA sets 9257 and 9259 (H1 L124E_L143E_K145M; L1 Q124K_V133G_S176R_T178K)
Kd [9]: 0.24 nM | Change in median values of KD of h1l1 Fab heterodimer compared to wild type (-(log(KD design)-log(KD wt))) [14]: -0.19

D3H44 Fab heterodimer H1 L124R_A125R_H172T / L1 V133G_N137K_S174R_S176D
Kd [9]: 0.23 nM | Change in median values of KD of h1l1 Fab heterodimer compared to wild type (-(log(KD design)-log(KD wt))) [10]: -0.16

D3H44 Fab heterodimer H1L1 of LCCA set 9188 (H1 L124E_L143D_K145M; L1 Q124K_V133G_S176R_T178R)
Kd [9]: 0.13 nM | Change in median values of KD of h1l1 Fab heterodimer compared to wild type (-(log(KD design)-log(KD wt))) [14]: 0.09

D3H44 H1L1 Fab heterodimer of LCCA sets 9911, 9909 and 9907 (H1 S188L; L1 WT)
Change in median values of KD of h1|1 Fab heterodimer compared to wild type (-(log(KD design)-log(KD wt))) [11]: 0.27 log units | Kd [11]: 0.09 nM

D3H44 H1L1 Fab heterodimer of LCCA Set # 9559 (H1 L124W_L143E_K145T_Q179E; L1 Q124K_V133A_S176T_T178R)
change in median KD compared to wild type, -(log(KD design)-log(KD wt)) [1]: -0.24 | Kd [2]: 0.27 nM

D3H44 Fab heterodimer H1L1 of LCCA sets 9536 and 9526 (H1 L124R_S186R; L1 V133G_S176D_T178D_T180E)
Kd [9]: 0.17 nM | Change in median values of KD of h1l1 Fab heterodimer compared to wild type (-(log(KD design)-log(KD wt))) [14]: -0.04

D3H44 H1L1 Fab heterodimer of LCCA Set # 10549 (H1 L45P_K145T_Q179E; L1 P44F_S131K)
change in median KD compared to wild type, -(log(KD design)-log(KD wt)) [1]: -0.35 | Kd [2]: 0.35 nM

D3H44 Fab heterodimer H1 L124R_H172T / L1 V133G_N137K_S174R_S176D
Kd [9]: 0.23 nM | Change in median values of KD of h1l1 Fab heterodimer compared to wild type (-(log(KD design)-log(KD wt))) [10]: -0.16

D3H44 H1L1 Fab heterodimer of LCCA set 9741 (H1 L143R; L1 Q124E_V133E_Q160F)
Change in median values of KD of h1|1 Fab heterodimer compared to wild type (-(log(KD design)-log(KD wt))) [11]: 0.34 log units | Kd [11]: 0.07 nM

D3H44 Fab heterodimer H1L1 of LCCA Set # 9052, 9051 and 9050 (H1 A139G_F174V_V190A; L1 S131T_L135F_S176F_T178F)
Change in median values of KD compared to wild type (-(log(KD design)-log(KD wt))) [12]: 0.06 log | Kd [13]: 0.14 nM

D3H44 Fab heterodimer H1 L124W_L143E_K145T_Q179E / L1 Q124R_V133A_S176T_T178R
Kd [9]: 0.21 nM | Change in median values of KD of h1l1 Fab heterodimer compared to wild type (-(log(KD design)-log(KD wt))) [10]: -0.13

D3H44 Fab heterodimer H1L1 of LCCA Set # 9062 and 9063 (H1 A139W_S188L; L1 F116A_L135V)
Change in median values of KD compared to wild type (-(log(KD design)-log(KD wt))) [12]: -0.02 log | Kd [13]: 0.17 nM

D3H44 H1L1 Fab heterodimer of LCCA Set # 9111 (H1 L124E_A125S_H172R_K228D; L1 S121K_V133G_S176R)
change in median KD compared to wild type, -(log(KD design)-log(KD wt)) [1]: 0.09 | Kd [2]: 0.13 nM

D3H44 Fab heterodimer, H1 D146G_H172R_Q179K / L1 Q38E_Q124E_Q160E_T180E (H1L1 Fab of LCCA Set # 9064)
Change in median values of KD of h1|1 Fab heterodimer compared to wild type (-(log(KD design)-log(KD wt))) [15]: -0.05 | Kd [16]: 0.17 nM

D3H44 H1L1 Fab heterodimer of LCCA Set # 9742 (H1 L143R; L1 Q124E_V133E_Q160M)
change in median KD compared to wild type, -(log(KD design)-log(KD wt)) [1]: -0.21 | Kd [2]: 0.25 nM

D3H44 Fab heterodimer H1 L124A / L1 V133W
Kd [9]: 0.13 nM | Change in median values of KD of h1l1 Fab heterodimer compared to wild type (-(log(KD design)-log(KD wt))) [10]: 0.07

D3H44 Fab heterodimer H1L1 of LCCA set 9361 (H1 L124R_D146N_Q179K; L1 V133G_S176D_T178E_T180E)
Kd [9]: 0.16 nM | Change in median values of KD of h1l1 Fab heterodimer compared to wild type (-(log(KD design)-log(KD wt))) [14]: -0.01

D3H44 H1L1 Fab heterodimer of LCCA Set # 9054 (H1 A139G_Q179K_V190A; L1 Q124E_L135W_Q160E_T180E)
change in median KD compared to wild type, -(log(KD design)-log(KD wt)) [1]: 0.05 | Kd [2]: 0.14 nM

D3H44 Fab heterodimer H1L1 of LCCA sets 9523 and 9524 (H1 L124R_S186R; L1 V133G_S176D_T178D)
Kd [9]: 0.2 nM | Change in median values of KD of h1l1 Fab heterodimer compared to wild type (-(log(KD design)-log(KD wt))) [14]: -0.1

D3H44 Fab heterodimer H1L1 of LCCA Set # 9071 (H1 F174V; L1 S131T_S176F_T178F)
Change in median values of KD compared to wild type (-(log(KD design)-log(KD wt))) [12]: -0.12 log | Kd [13]: 0.21 nM

D3H44 Fab heterodimer, H1 L124E_L143E_K145M / L1 Q124K_V133G_Q160K_S176R (H1L1 Fab of LCCA Set # 9248 and 9249)
Change in median values of KD of h1|1 Fab heterodimer compared to wild type (-(log(KD design)-log(KD wt))) [15]: -0.26 | Kd [16]: 0.28 nM

D3H44 Fab heterodimer H1L1 of LCCA Set # 9732 and 9733 (H1 L143K; L1 Q124E_V133D_S176L)
Change in median values of KD compared to wild type (-(log(KD design)-log(KD wt))) [12]: -0.25 log | Kd [13]: 0.28 nM

D3H44 Fab heterodimer H1L1 of LCCA set 9226 (H1 L124E_L143D_K145T; L1 Q124K_V133G_S176R_T178R)
Kd [9]: 0.16 nM | Change in median values of KD of h1l1 Fab heterodimer compared to wild type (-(log(KD design)-log(KD wt))) [14]: -0.02

D3H44 Fab heterodimer H1L1 of LCCA Set # 9769, 9767, 9763, 9759, 9761, 9760 and 9773 (H1 Q179K; L1 Q124E_Q160E_T180E)
Change in median values of KD compared to wild type (-(log(KD design)-log(KD wt))) [12]: -0.31 log | Kd [13]: 0.32 nM

D3H44 Fab heterodimer H1L1 of LCCA Set # 9731 (H1 L143K; L1 Q124E_V133D)
Change in median values of KD compared to wild type (-(log(KD design)-log(KD wt))) [12]: -0.26 log | Kd [13]: 0.28 nM
